Laboratory results taken from publication doi:10.1101/2022.08.12.503727.

Molecular target: T1, RBP45d (Arabidopsis thaliana, UniProt Q8VXZ9 1-425)
T1 sequence: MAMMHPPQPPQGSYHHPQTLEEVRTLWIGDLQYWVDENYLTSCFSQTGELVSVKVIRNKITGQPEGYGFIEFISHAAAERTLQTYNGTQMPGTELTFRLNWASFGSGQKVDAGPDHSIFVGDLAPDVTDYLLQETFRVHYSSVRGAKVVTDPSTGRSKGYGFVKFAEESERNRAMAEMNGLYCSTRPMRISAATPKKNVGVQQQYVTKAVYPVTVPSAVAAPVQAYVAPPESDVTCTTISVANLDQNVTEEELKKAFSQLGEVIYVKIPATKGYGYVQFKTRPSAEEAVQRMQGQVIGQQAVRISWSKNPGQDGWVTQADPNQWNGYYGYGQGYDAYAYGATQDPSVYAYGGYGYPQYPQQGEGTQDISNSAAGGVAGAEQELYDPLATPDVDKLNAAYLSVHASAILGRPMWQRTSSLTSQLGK
Test: EMSA

Question: Does GUUUUGUUCGGUUUUGGUUUAGAUUUUUG (ssRNA) [Cy5-LPD1-IN2] bind?
Answer: binds
